Measured values published in patent publication US20210032350A1 (Memorial Sloan Kettering, published 2021).

Assays:
mouse Galectin-3 = target: T1, mouse Galectin-3 (mouse, UniProt P16110 2-264, limits assumed); experiment: ELISA screening (Table 1, antigen target)
T1 construct: also called mLGALS3; mouse LGALS3

human Galectin-3 = target: T2, human Galectin-3 (human, UniProt P17931 1-250); experiment: SPR, antibody captured on anti-mouse Fc surface, 8-pt 2-fold dilution series of LGALS3 from 500 nM
T2 construct: In the laminin assay it was biotin-labelled; also called LGALS3; Gal3
Experimental: SPR: Antibody binding to LGALS3 was confirmed by surface plasmon resonance (SPR) assay. The antibody was captured on an anti-mouse Fc surface and an 8-pt. 2-fold dilution series of LGALS3 was flown over the antibody starting at 500 nM.

T1 sequence (P16110 2-264 limits assumed): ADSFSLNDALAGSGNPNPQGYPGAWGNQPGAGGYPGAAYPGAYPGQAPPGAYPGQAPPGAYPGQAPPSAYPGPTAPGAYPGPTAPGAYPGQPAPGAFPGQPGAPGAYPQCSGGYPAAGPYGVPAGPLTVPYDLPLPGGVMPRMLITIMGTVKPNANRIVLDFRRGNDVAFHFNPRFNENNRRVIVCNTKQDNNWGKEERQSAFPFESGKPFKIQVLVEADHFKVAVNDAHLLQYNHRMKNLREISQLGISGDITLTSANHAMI
T2 sequence (P17931 whole entry): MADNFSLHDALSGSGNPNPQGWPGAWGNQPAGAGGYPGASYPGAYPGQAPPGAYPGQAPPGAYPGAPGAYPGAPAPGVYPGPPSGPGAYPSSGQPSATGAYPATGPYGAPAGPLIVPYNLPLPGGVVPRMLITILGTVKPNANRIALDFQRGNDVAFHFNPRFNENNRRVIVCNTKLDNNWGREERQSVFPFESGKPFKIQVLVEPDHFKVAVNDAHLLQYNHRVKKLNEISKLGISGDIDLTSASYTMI

B1: 112516.14D11.2D2 (antibody, V domains shown)
VH: QVQLKESGPGLVAPSQSLSITCTISGFSLSSYGVHWVRQPPGKGLEWLVVIWSDGSTTYNSTLKSRLSISKDNSKSQVFLKMNSLQTDDTAMYYCARHISNYGTMDYWGQGTSVTVS
VL: DIQMTQTTSSLSASLGDRVTISCRASQDIRNYLNWYQQKPDGSIKLLIYYTSRLHSGVPSRFSGSGSGTDYSLTIRNLEQEDIATYFCQHFNTLPPTFGGGTKLEIK
binding result (mouse Galectin-3): binds | Kd (human Galectin-3): 14.6 nM
